These results are taken from publication doi:10.1101/2024.07.02.601760.

The assay deals with T1, Arabidopsis thaliana 14-3-3 kappa (Arabidopsis thaliana), P48348.
T1 chain: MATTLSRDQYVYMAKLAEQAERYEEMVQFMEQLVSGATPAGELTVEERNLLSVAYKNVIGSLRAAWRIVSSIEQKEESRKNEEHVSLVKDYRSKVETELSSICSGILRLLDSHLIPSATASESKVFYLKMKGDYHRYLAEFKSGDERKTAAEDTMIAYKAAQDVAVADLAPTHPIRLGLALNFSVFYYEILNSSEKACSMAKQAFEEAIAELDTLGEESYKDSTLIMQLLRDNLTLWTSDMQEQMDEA
The experiment in a line: SEC-MALS. The settings on record: remark: other sources report otherwise.

B1: Arabidopsis thaliana 14-3-3 kappa, P48348 1-248 (natural protein)
chain: T1 chain
For the molecule B1, the stoichiometry N is 2.
